The results in this text go back to patent US20180127487A1 (Sanofi, published 2018).

A word on the Kd: it is a measure of binding affinity in units of concentration.

Residue numbers refer to the chain shown, from its start. In names and notes the source's numbering stands. Like-named read-outs stand apart in the source and are kept apart here.

For experiment [1], the target named is T1, recombinant human FcRn (human, UniProt P55899 24-297; P61769 21-119).
T1 construct: also called human FcRn receptor
T1 sequence (P55899 24-297 limits assumed, chain 1 of 2): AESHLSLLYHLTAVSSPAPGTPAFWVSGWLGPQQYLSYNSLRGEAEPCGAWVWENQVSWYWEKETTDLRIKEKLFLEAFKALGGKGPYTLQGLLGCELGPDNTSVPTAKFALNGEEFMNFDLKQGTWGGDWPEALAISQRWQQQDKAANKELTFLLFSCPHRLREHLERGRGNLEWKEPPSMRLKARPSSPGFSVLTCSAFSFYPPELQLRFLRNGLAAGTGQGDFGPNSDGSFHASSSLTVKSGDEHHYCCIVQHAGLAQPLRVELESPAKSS
T1 sequence (P61769 21-119 limits assumed, chain 2 of 2): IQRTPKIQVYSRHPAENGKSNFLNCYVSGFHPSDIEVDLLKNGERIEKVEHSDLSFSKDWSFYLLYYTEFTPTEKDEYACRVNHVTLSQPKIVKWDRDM
In words: SPR, human FcRn immobilised; relative to mAb1.

In experiment [2] the target is T2, recombinant mouse FcRn (mouse, UniProt Q61559 22-297; P01887 21-119).
T2 sequence 1: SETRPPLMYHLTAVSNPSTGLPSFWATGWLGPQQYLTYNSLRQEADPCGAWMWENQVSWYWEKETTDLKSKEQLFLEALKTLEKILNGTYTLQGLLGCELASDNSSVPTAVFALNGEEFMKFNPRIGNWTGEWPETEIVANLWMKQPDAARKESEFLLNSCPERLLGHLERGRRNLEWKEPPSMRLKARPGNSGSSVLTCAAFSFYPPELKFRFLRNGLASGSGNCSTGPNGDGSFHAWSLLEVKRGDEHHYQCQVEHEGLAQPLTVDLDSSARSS
T2 sequence 2: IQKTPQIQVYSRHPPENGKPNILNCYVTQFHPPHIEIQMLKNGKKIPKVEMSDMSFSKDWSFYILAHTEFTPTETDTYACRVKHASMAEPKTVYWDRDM
In words: SPR, mouse FcRn immobilised; relative to mAb1. Background: In SPR one partner is held on a chip, and binding of the other changes the refractive index at the surface.

Experiment [3] concerns the target T1, recombinant human FcRn. Briefly: SPR (Biacore T200), human FcRn immobilised on CM5 chip.
Experiment [4] concerns the target T2, recombinant mouse FcRn. Briefly: SPR (Biacore T200), mouse FcRn immobilised on CM5 chip.
Experiment [5] has as its target T3, Recombinant human HPC4-tagged FcγRIII-F158 (human, UniProt P08637 17-208).
T3 construct: also called FcγRIIIaF158; not shown: HPC4 tag
In words: SPR (Biacore 3000), HPC4-tagged FcγRIII-F158 captured on anti-HPC4 CM5 chip, antibody injected 2 min, in duplicate; concentration (900, 300 or 100 nM in the methods) not printed on the sheet.

Experiment [6] deals with T4, Recombinant human HPC4-tagged FcγRIIIa-V158 (human, UniProt P08637 17-208).
T4 construct: Valine at 158 is a polymorphism, named without an old residue; also called Val158; not shown: HPC4 tag
T4 sequence (P08637 17-208 F176V): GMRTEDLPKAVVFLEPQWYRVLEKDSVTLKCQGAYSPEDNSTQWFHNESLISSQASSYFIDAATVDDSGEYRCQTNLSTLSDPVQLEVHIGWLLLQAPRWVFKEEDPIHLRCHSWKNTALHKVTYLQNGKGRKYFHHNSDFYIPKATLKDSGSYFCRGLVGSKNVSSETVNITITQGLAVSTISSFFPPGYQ
Briefly: SPR (Biacore 3000), HPC4-tagged FcγRIIIa-V158 captured on anti-HPC4 CM5 chip, antibody injected 2 min, in duplicate; concentration (900, 300 or 100 nM in the methods) not printed on the sheet.

Experiment [7] deals with T1, recombinant human FcRn. In words: SPR, human FcRn immobilised; relative to mAb2.
For experiment [8], the target named is T2, recombinant mouse FcRn. Briefly: SPR, mouse FcRn immobilised; relative to mAb2.
Experiment [9] concerns the target T1, recombinant human FcRn. In words: SPR (Biacore T200), human FcRn immobilised on CM5 chip. This is another data set of the same source.
The target in experiment [10] is T2, recombinant mouse FcRn. In words: SPR (Biacore T200), mouse FcRn immobilised on CM5 chip. The source holds these as a separate data set.
Experiment [11] deals with Antigen (E2) (Chikungunya virus). In words: SPR (Biacore T200), His-tagged antigen captured by anti-His antibody, 1:1 model.
For experiment [12], the target named is T5, His-tagged CHIKV E2 LR2006 (Chikungunya virus strain LR2006, UniProt Q8JUX5 326-1220).
T5 construct: also called CHIKV pE2-E1 antigen derived from CHIKV strain LR2006; pE2-E1 target

The target in experiment [13] is T3, Recombinant human HPC4-tagged …. In words: SPR (Biacore 3000), HPC4-tagged FcγRIII-F158 captured on anti-HPC4 CM5 chip, antibody injected 2 min, in duplicate; concentration (900, 300 or 100 nM in the methods) not printed on the sheet. This is another data set of the same source.
Experiment [14] has as its target T4, Recombinant human HPC4-tagged …. Briefly: SPR (Biacore 3000), HPC4-tagged FcγRIIIa-V158 captured on anti-HPC4 CM5 chip, antibody injected 2 min, in duplicate; concentration (900, 300 or 100 nM in the methods) not printed on the sheet. The source holds these as a separate data set.

T3 sequence (P08637 17-208): as the sequence (P08637 17-208 F176V) above, with V160F counted along it

B1: mAb3 (antibody)
heavy: not shown
light: QAVVTQPPSVSGAPGQRVTISCTGSSSNIGADYNVHWYQLLPGTAPKLLIYGNTNRPSGVPDRFSGSKSGTSASLAITGLQAEDEADYYCQSYDSSLSASVFGGGTKLTVLGQPKAAPSVTLFPPSSEELQANKATLVCLISDFYPGAVTVAWKADSSPVKAGVETTTPSKQSNNKYAASSYLSLTPEQWKSHRSYSCQVTHEGSTVEKTVAPTECS
notes: also called mAb1A
Consider B1, for which the “Affinity Increase (fold)” value in [1] was determined as 7.7 fold; in experiment [2], 2.1 fold. Moreover, the Kd is 45 nM in [3] and 9.3 nM in experiment [4]. For the same molecule, the binding result in [5] and in experiment [6] was “binds” in each case.

B2: mAb6 (antibody)
heavy: QVQLVQSGAEVKKPGASVKVSCKASGYSFTSYGISWVRQAPGQGLEWMGWISTYKGYTQYAQNFQGRVTITTDTPATTVYMELRSLRSDDTAVYYCARVLSETGYFYYYYYGMDVWGQGTLVTVSSASTKGPSVFPLAPSSKSTSGGTAALGCLVKDYFPEPVTVSWNSGALTSGVHTFPAVLQSSGLYSLSSVVTVPSSSLGTQTYICNVNHKPSNTKVDKKVEPKSCDKTHTCPPCPAPELLGGPSVFLFPPKPKDTLYITREPEVTCVVVDVSHEDPEVKFNWYVDGVEVHNAKTKPREEQYNSTYRVVSVLTVLHQDWLNGKEYKCKVSNKALPAPIEKTISKAKGQPREPQVYTLPPSRDELTKNQVSLTCLVKGFYPSDIAVEWESNGQPENNYKTTPPVLDSDGSFFLYSKLTVDKSRWQQGNVFSCSVMHEALHNHYTQKSLSLSPG
light: B1 light
notes: also called mAb1YTE
Turning to B2, the results for the “Affinity Increase (fold)” value in [1] and in [2] were 16.3 fold and 10.4 fold, respectively. Also, the Kd in experiment [3] is 21 nM; in experiment [4], 1.9 nM. In addition, the binding result in [5] and in experiment [6] was “binds” throughout.

B3: mAb4 (antibody)
heavy: B2 heavy with Y261M, T263S, E265T, T316A, E389A, N443A
light: B1 light
notes: also called mAb1AAA
For the molecule B3, the “Affinity Increase (fold)” value was determined as 11.3 fold in experiment [1] and 2.3 fold in experiment [2]. Moreover, the dissociation constant Kd in [3] turned out to be 31 nM; in experiment [4] it was 8.4 nM. The binding result in experiment [5] and in experiment [6] was “binds” each time.

B4: mAb5 (antibody)
heavy: not shown
light: B1 light
notes: also called mAb1QL
Take B4: the figures for the “Affinity Increase (fold)” value in experiment [1] and in [2] were 13 fold and 3.3 fold, respectively. Further, the Kd is 27 nM in [3] and 5.9 nM in experiment [4]. Besides, the binding result in experiment [5] and in [6] was “binds” each time.

B5: mAb2 (antibody)
heavy: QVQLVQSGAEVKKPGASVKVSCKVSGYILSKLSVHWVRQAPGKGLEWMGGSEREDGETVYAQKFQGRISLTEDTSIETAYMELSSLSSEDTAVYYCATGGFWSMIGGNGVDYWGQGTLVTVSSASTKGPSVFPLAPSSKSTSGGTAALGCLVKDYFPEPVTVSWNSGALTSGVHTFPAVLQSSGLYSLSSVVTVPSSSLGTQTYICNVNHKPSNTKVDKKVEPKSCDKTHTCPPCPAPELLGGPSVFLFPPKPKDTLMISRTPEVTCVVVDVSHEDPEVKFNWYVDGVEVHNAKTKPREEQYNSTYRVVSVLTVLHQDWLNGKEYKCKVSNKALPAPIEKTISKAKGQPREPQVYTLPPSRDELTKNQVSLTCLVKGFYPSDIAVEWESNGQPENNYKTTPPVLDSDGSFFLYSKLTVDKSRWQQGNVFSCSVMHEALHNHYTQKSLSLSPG
light: QAVVTQSPSSLPASVGDRVTITCRASQDIRNNLGWYQQKPGKAPERLIYGTSNLQSGVPSRFSGSGSGTEFTLTISSLQPEDFATYYCLQHNSYPPTFGRGTKVEIKRTVAAPSVFIFPPSDEQLKSGTASVVCLLNNFYPREAKVQWKVDNALQSGNSQESVTEQDSKDSTYSLSSTLTLSKADYEKHKVYACEVTHQGLSSPVTKSFNRGEC
notes: also called parent antibody mAb2
For B5, the “Affinity Increase (fold)” value in experiment [7] and in [8] was 1 fold each time. Also, the results for the Kd in [9], in experiment [10] and in experiment [11] were 328 nM, 22 nM and 0.13 nM, respectively. The binding result in [12], in experiment [13] and in [14] was “binds” throughout.

B6: M104A/N108Q (antibody, V domains shown)
VH: QVQLVQSGAEVKKPGASVKVSCKVSGYILSKLSVHWVRQAPGKGLEWMGGSEREDGETVYAQKFQGRISLTEDTSIETAYMELSSLSSEDTAVYYCATGGFWSAIGGQGVDYWGQGTLVTVSS
VL: QAVVTQSPSSLPASVGDRVTITCRASQDIRNNLGWYQQKPGKAPERLIYGTSNLQSGVPSRFSGSGSGTEFTLTISSLQPEDFATYYCLQHNSYPPTFGRGTKVEIKR
notes: also called mAb2 M104A/N108Q; double mutant of mAb2 in CDRH3
With B6, in experiment [12], the binding result was “no binding”.

B7: mAb11 (antibody)
heavy: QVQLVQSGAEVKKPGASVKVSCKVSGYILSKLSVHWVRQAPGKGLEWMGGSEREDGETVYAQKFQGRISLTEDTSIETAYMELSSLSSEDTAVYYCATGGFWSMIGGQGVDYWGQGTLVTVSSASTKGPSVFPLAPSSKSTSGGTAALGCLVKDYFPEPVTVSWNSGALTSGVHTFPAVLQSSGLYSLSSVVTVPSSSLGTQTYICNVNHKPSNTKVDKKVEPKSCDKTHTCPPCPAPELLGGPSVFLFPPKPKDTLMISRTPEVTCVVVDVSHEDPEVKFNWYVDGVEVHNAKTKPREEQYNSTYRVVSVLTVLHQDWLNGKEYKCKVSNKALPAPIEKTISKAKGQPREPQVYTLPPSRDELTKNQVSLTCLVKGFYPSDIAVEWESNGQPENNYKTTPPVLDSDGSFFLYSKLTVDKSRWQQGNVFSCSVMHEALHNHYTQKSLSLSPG
light: B5 light
notes: also called mAb2N108Q; mAb2 N108Q
As to B7, the “Affinity Increase (fold)” value in experiment [7] and in experiment [8] was 1.1 fold in each case. Moreover, the dissociation constant Kd in experiment [9] was determined as 301 nM; in [10], 20 nM; in experiment [11], 0.22 nM. Besides, the binding result in experiment [12], in experiment [13] and in experiment [14] was “binds” in each case.

B8: mAb2 M104A (antibody, V domains shown)
VH: B6 VH with Q108N
VL: B6 VL
notes: also called variant comprising an alanine at position 8 of its CDRH3
For the molecule B8, in experiment [12], the binding result is listed as “no binding”.

B9: mAb12 (antibody, V domains shown)
VH: B6 VH with A104M, Q108N, G109A
VL: B6 VL
notes: also called mAb2G109A; mAb2 G109A
B9: the affinity in experiment [11], expressed as Kd, was 0.5 nM. Also, the binding result in experiment [12] is “binds”.

B10: mAb10 (antibody, V domains shown)
VH: B6 VH with A104I, Q108N
VL: B6 VL
notes: also called mAb2M104I
Regarding B10, binding in [11] was put at a Kd of 0.94 nM. In addition, in experiment [12], the binding result is listed as “binds”.

B11: M104A/G109A (antibody, V domains shown)
VH: B6 VH with Q108N, G109A
VL: B6 VL
notes: also called mAb2 M104A/G109A; double mutant of mAb2 in CDRH3
As to B11, in experiment [12], the binding result is reported as “no binding”.
